Our source for the Kd values is patent publication US20190263934A1 (published 2019).

The assay concerns the target T1, Ab3 WT recombinant Fc fragment (UniProt P01857-1 104-330 = IgG part, limits assumed).
T1 construct: domain: Fc fragment; Ab3 is an Fc fragment
Description: Biacore SPR, pH 6.0. For orientation: SPR reads the build-up and loss of mass on a sensor chip optically.
Description: With the biotin CAPture kit, the CAPture reagent was captured on the CAP chip surface to a binding RU of >2,000 RU, followed by 0.1 μg mL⁻¹ FcRn in the appropriate channels for 24 s at 30 uL min⁻¹ to a final binding RU of ˜2 RU. The running buffer for the FcRn binding kinetics experiments was PBS with 0.05% Surfactant P-20 (PBS-P+, GE Healthcare) at pH 6.0 or 7.4. A concentration series of a 4-fold serial dilution from 1000 nM antibody was performed in quadruplicate for each variant, including a 0 nM control. Kinetic measurements were obtained for association and dissociation times of 180 and 300 sec, respectively at a flow rate of 10 μL min⁻¹. The C1 and CAP sensor chips were regenerated with 10 mM sodium tetraborate, 1 M NaCl pH 8.5 (GE Healthcare) for 30 sec at 50 μL min⁻¹ or 6 M guanidine hydrochloride, 250 mM sodium hydroxide (GE Healthcare) for 120 s at 50 uL min¹, respectively, followed by an additional 60-90 sec stabilization step in PBS-P+pH 6.0. […]
Kinetic parameters for the concentration series at pH 6.0 were fit to a bivalent model using the Biacore T200 Evaluation Software due to avidity effects. […] The apparent binding affinity was calculated from the first on and off-rates from the bivalent model. The residual binding at pH 7.4 was measured using 1000 nM of each antibody in triplicate at the same time for response comparison.

B1: mouse FcRn (receptor)
chain: SETRPPLMYHLTAVSNPSTGLPSFWATGWLGPQQYLTYNSLRQEADPCGAWMWENQVSWYWEKETTDLKSKEQLFLEALKTLEKILNGTYTLQGLLGCELASDNSSVPTAVFALNGEEFMKFNPRIGNWTGEWPETEIVANLWMKQPDAARKESEFLLNSCPERLLGHLERGRRNLEWKEPPSMRLKARPGNSGSSVLTCAAFSFYPPELKFRFLRNGLASGSGNCSTGPNGDGSFHAWSLLEVKRGDEHHYQCQVEHEGLAQPLTVDLDSSARSS
b2m: IQKTPQIQVYSRHPPENGKPNILNCYVTQFHPPHIEIQMLKNGKKIPKVEMSDMSFSKDWSFYILAHTEFTPTETDTYACRVKHASMAEPKTVYWDRDM
modifications: biotinylated
notes: only 'biotinylated ... mouse FcRn' is told; also called mFcRn
For B1, the Kd worked out at 61 nM.

A word on the Kd: it is the concentration at which binding is half-saturated.
